Experimental data: article PMC3276697 (Traffic (Copenhagen, Denmark), 2012)

Molecular target: T1, Vps4(E233Q), the ATP-locked form of Vps4 (S. cerevisiae, UniProt P52917 1-437, E233Q)
T1 sequence (looked up): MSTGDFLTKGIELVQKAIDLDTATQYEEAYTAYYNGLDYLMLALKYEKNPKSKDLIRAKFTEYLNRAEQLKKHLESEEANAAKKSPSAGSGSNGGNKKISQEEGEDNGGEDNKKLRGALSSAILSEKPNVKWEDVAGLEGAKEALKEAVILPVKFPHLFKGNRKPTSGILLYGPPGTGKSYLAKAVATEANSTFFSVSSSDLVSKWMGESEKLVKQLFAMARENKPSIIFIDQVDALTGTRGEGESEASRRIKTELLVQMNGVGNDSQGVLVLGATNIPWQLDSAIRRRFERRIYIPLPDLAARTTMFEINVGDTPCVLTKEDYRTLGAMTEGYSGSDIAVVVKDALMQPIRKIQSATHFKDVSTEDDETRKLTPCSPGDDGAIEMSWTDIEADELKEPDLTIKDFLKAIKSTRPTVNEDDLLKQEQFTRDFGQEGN
Assay: pull-down

- binding result: binds
B1: GST-Did2(CT) (amino acids 113-204), the C-terminal half of Did2 (domain or fragment, S. cerevisiae, UniProt P69771 113-204, looked up)
chain: QQITMIMDKFEQQFEDLDTSVNVYEDMGVNSDAMLVDNDKVDELMSKVADENGMELKQSAKLDNVPEIKAKEVNVDDEKEDKLAQRLRALRG
